Reference: US20200239578A1 (Eli Lilly, published 2020)

T1: cynomolgus monkey BTLA on cyno PBMCs (cynomolgus monkey, UniProt Q7Z6A9 31-289 (human entry))
T1 construct: Endogenous BTLA on primary cells; also called cynomolgus monkey BTLA-expressing cells
T1 chain: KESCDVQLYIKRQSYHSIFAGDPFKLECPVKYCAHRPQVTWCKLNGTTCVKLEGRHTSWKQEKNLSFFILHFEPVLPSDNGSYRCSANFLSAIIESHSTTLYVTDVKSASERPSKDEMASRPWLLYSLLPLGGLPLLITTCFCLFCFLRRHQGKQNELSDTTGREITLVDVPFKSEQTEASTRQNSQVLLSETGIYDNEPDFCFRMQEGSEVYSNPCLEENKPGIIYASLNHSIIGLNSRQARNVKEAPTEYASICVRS

T2: murine (Balbc) BTLA protein (immobilised on the Biacore chip) (mouse (Balbc), UniProt Q7TSA3 30-183, limits assumed)
T2 construct: also called Mouse Balbc BTLA
T2 chain: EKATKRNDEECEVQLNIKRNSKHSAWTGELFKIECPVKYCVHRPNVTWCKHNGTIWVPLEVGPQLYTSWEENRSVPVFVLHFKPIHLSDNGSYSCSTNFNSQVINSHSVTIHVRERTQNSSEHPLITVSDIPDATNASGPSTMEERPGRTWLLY

T3: murine (C57BL6) BTLA protein (immobilised on the Biacore chip) (mouse (C57BL6), UniProt Q7TSA3 30-183, limits assumed)
T3 construct: also called Mouse C57BL6 BTLA
T3 chain: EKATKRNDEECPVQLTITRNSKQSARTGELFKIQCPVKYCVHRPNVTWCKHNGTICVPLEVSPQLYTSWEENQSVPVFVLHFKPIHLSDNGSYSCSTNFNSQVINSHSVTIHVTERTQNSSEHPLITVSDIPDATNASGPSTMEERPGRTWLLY

T4: human BTLA protein (immobilised on the Biacore chip) (human, UniProt Q7Z6A9 31-150, limits assumed)
T4 construct: also called B and T Lymphocyte Attenuator; CD272
T4 sequence: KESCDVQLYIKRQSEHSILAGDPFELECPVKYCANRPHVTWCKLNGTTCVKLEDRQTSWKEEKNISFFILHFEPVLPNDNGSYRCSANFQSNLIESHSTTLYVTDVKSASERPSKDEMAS

T5: cynomolgus monkey BTLA protein (immobilised on the Biacore chip) (cynomolgus monkey, limits assumed)
T5 construct: also called Cyno BTLA
T5 chain: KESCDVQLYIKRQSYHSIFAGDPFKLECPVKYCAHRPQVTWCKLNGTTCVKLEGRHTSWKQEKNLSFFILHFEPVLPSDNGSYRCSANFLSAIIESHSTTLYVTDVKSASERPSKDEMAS

T6: mouse BTLA on splenocytes of C57BL6 mice (mouse (C57BL6), UniProt Q7TSA3 30-306)
T6 construct: Endogenous BTLA on primary cells; also called mouse BTLA-expressing cells
T6 sequence: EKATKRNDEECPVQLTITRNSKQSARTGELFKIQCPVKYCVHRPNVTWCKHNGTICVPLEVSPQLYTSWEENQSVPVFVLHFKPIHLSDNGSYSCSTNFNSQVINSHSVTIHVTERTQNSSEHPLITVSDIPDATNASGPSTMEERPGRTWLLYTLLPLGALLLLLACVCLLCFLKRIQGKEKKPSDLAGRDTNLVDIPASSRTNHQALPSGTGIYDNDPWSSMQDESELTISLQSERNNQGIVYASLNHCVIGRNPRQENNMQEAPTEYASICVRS

T7: rat BTLA protein (immobilised on the Biacore chip) (rat, UniProt Q6PNM1 30-183, limits assumed)
T7 sequence (looked up): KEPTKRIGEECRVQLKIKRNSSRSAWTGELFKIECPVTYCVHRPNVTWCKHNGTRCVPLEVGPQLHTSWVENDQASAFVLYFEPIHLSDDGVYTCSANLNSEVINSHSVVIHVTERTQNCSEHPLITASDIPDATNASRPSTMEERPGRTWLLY


Legend:
[1] = target: human BTLA on human cells (PBMCs, Ramos.2G6.4C10 B cell line, primary B cells) (human, UniProt Q7Z6A9 31-289); assay: cell-based or functional assay
[2] = target: T1, cynomolgus monkey BTLA on cyno PBMCs; assay: flow cytometry (FACS) on primary cells
Experimental: (§1) Isolated primary cells are quantified using a Countess cell counter, and resuspended at 2×10⁶ cells per ml in FACS buffer. Flow cytometry experiments is performed the same day as cell isolation by plating 50 μl (˜0.1×10⁶) cells into a 96 well plate (Greiner #650101). Non-specific antibody binding is prevented by adding 1 μl Fc block (for example, from BD #553142) for 15 minutes at 4 ° C. without washing.
(§2) BTLA antibody binding is tested at various concentrations, by serial dilution in FACS buffer. For example, a purified antibody and controls starting at different concentrations are first diluted to 30 μg/mL and serial 1:3 dilutions of the starting material is performed for a total of 10 titrations (plus untreated control). Antibody titrations are incubated with cells for 20 minutes at 4° C., and washed with FACS buffer prior to stain. Cells are stained using fluorochrome-conjugated antibodies to identify specific cell types (eg. CD19 B cells, CD4 T cells or CD8 T cells) or using a secondary antibody to identify the presence or absence of antibody binding to that subset. Staining is performed for 20 minutes at 4° C. and washed 3 times with FACS buffer prior to analysis on a flow cytometer. Results are analyzed using standard FACS analysis software (eg. FACSDiva) and reported as mean fluorescent intensity of the secondary antibody for each titration. A positive result, which indicates binding, is determined by mean fluorescent intensity staining above background.

[3] = target: T2, murine (Balbc) BTLA protein …; assay: SPR (Biacore 3000), BTLA amine-coupled to the chip, antibody flowed
Experimental: (§3) The binding affinity and kinetics of the BTLA agonist antibodies of the present invention (22B3, 23C8, and 25F7) to BTLA are measured by surface plasmon resonance using Biacore® 3000 (GE Healthcare). […] The experiments are carried out at 25° C. in HBS-EP buffer (GE Healthcare BR100669; 10 mM HEPES, 150 mM NaCl, 3 mM EDTA, 0.05% surfactant P20, pH 7.4). For each cycle, 250 μL antibody sample is flowed through flow cell 1 and 2 at 50 μ1/min, and then dissociated for 10 minutes. The chip surface is regenerated with 5 μL injection of glycine buffer at pH 1.5 at […] flow rate. The data are fit to a 1:1 Langmiur binding model to derive kₒₙ, k_{off,} and to calculate KD. Data shown below are the average of three experiments for human, cyno, rat and murine for 22B3.

[4] = target: T3, murine (C57BL6) BTLA protein …; assay: as above
Experimental: as §3

[5] = target: T4, human BTLA protein (immobilised on the …); assay: SPR (Biacore 3000), BTLA amine-coupled to the chip, antibody flowed, 25 C, 1:1 Langmuir fit
Experimental: as §3

[6] = target: T5, cynomolgus monkey BTLA protein …; assay: as above
Experimental: as §3

[7] = target: T6, mouse BTLA on splenocytes of C57BL6 mice; assay: flow cytometry (FACS) on primary cells
Experimental: as §1, §2

[8] = target: T2, murine (Balbc) BTLA protein …; assay: SPR (Biacore 3000), BTLA amine-coupled to the chip, antibody flowed, 25 C, 1:1 Langmuir fit
Experimental: as §3

[9] = target: T3, murine (C57BL6) BTLA protein …; assay: as above
Experimental: as §3

[10] = target: T7, rat BTLA protein (immobilised on the …); assay: as above
Experimental: as §3

IC50 of inhibition of human primary B cell proliferation ([3H]-thymidine) [1] | binding result [2] | Kd [5] | koff [5] | kon [5] | Kd [6] | koff [6] | kon [6] | fold increase in tyrosine phosphorylation of BTLA over background compared to negative control (Ramos B cell line, MSD) [1] | binding result [7] | Kd [9] | koff [9] | kon [9] | Binder | also measured
0.14 nM | binds | 1.93 nM | 0.000293 s⁻¹ | 159000 M⁻¹ s⁻¹ | 35.4 nM | 0.00309 s⁻¹ | 87100 M⁻¹ s⁻¹ | – | – | – | – | – | Antibody 23C8 (antibody, human IgG4 S228P, kappa, F234A L235A, V domains shown, also called BTLA agonist antibody 23C8) VH: EVQLVESGGGLVQPGGSLRLSCAASGFDISKYNIQWVRQAPGKGLEWVGFINYGGSAYYASRAKGRFTISRDDSKNSLYLQMNSLKTEDTAVYYCARGLSNSDLWGQGTLVTVSS VL: DIQMTQSPSSLSASVGDRVTITCQASQSISSWLSWYQQKPGKAPKLLIYRASTLASGVPSRFSGSGSGTDFTFTISSLQPEDIATYYCQSTYGGVVGSTSDDNPFGGGTKVEIKR | binding result [3]: no binding; binding result [4]: no binding
0.32 nM | binds | 0.365 nM | 0.00219 s⁻¹ | 5.87e+06 M⁻¹ s⁻¹ | 0.27 nM | 0.000647 s⁻¹ | 2.45e+06 M⁻¹ s⁻¹ | 2.41 fold | binds | 147 nM | 0.265 s⁻¹ | 1.89e+06 M⁻¹ s⁻¹ | Antibody 22B3 (antibody, human IgG4 S228P, kappa, F234A L235A, V domains shown, also called humanized 22B3; BTLA agonist antibody 22B3) VH: QVQLVQSGAEVKKPGASVKVSCKASGFSLSSYGVSWVRQAPGQGLEWMGAISYDGITYYASWAKSRVTMTRDTSTSTVYMELSSLRSEDTAVYYCARGDYYDDYVYVYALDIWGQGTLVTVSS VL: EIVLTQSPGTLSLSPGERATLSCQASQSISTALAWYQQKPGQAPRLLIYAASTLASGIPDRFSGSGSGTDFTLTISRLEPEDFAVYYCQQGYSSSNLDNVFGGGTKVEIKR | IC50 of inhibition of human primary B cell proliferation ([3H]-thymidine), similar experiment beside Mab8D5 [1]: 0.32 nM; Kd [8]: 32.5 nM; koff [8]: 0.0858 s⁻¹; kon [8]: 2.6e+06 M⁻¹ s⁻¹; Kd [10]: 24.1 nM; koff [10]: 0.0462 s⁻¹; kon [10]: 2.1e+06 M⁻¹ s⁻¹
0.17 nM | binds | 206 nM | 0.0142 s⁻¹ | 68600 M⁻¹ s⁻¹ | – | – | – | 1.47 fold | binds | 4.63 nM | 0.00035 s⁻¹ | 77000 M⁻¹ s⁻¹ | Antibody 25F7 (antibody, human IgG4 S228P, kappa, F234A L235A, V domains shown, also called BTLA agonist antibody 25F7) VH: QVQLVQSGAEVKKPGASVKVSCKASGFSLSTYAMNWVRQAPGQGLEWMGIISDDGTTYYATWAKGRVTMTRDTSTSTVYMELSSLRSEDTAVYYCARDAGAGGVQDYLTLWGQGTLVTVSS VL: DIVMTQSPDSLAVSLGERATINCQASENIYNFLAWYQQKPGQPPKLLIYSASTLASGVPDRFSGSGSGTDFTLTISSLQAEDVAVYYCQQGSSNSNIDNPFGGGTKVEIKR | –
